Data: publication PMC4417627 (Biochemistry, 2013)
Where a chain is given by its changes, count along the chain named. Read-outs that look alike come from different tables or passages of the source.

B1: 5xAla NEMO, recombinant full-length, C-terminal 6xHis (natural protein, human, UniProt Q9Y6K9 1-419, looked up)
chain: MNRHLWKSQLAEMVQPSGGPAADQDVLGEESPLGKPAMLHLPSEQGAPETLQRCLEENQELRDAIRQSNQILRERAEELLHFQASQREEKEFLMAKFQEARKLVERLGLEKLDLKRQKEQALREVEHLKRAQQQMAEDKASVKAQVTSLLGELQESQSRLEAATKEAQALEGRARAASEQARQLESEREALQQQHSVQVDQLRMQGQSVEAALRMERQAASEEKRKLAQLQVAYHQLFQEYDNHIKSSVVGSERKRGMQLEDLKQQLQQAEEALVAKQEVIDKLKEEAEQHKIVMETVPVLKAQADIYKADFQAERQAREKLAEKKELLQEQLEQLQREYSKLKASCQESARIEDMRKRHVEVSQAPLPPAPAYLSSPLALPSQRRSPPEEPPDFCCPKCQYQAPDMDTLQIHVMECIE
B2: 5xAla NEMO, full-length, expressed in NEMO-deficient mouse fibroblasts (natural protein, human, UniProt Q9Y6K9 1-419, looked up)
chain: B1 chain
B3: 6xAla NEMO containing Cys11 (Cys11 added back into the 7xAla construct) (natural protein, human, UniProt Q9Y6K9 1-419, looked up)
chain: B1 chain with A11C, C54A, C347A
B4: 6xAla NEMO containing Cys54 (Cys54 added back into the 7xAla construct) (natural protein, human, UniProt Q9Y6K9 1-419, looked up)
chain: B1 chain with C347A
B5: 6xAla NEMO containing Cys347 (Cys347 added back into the 7xAla construct) (natural protein, human, UniProt Q9Y6K9 1-419, looked up)
chain: B1 chain with C54A
B6: 6xAla NEMO containing Cys76 (Cys76 added back into the 7xAla construct) (natural protein, human, UniProt Q9Y6K9 1-419, looked up)
chain: B1 chain with C54A, A76C, C347A
B7: 7xAla NEMO, recombinant full-length, C-terminal 6xHis (natural protein, human, UniProt Q9Y6K9 1-419, looked up)
chain: B1 chain with C54A, C347A

Assays:
[1] = biological target: IKKβ 680-756 (Homo sapiens) (UniProt O14920); assay: SPR; conditions: cited from earlier work
Chain of IKKβ 680-756 (Homo sapiens) (O14920 680-756): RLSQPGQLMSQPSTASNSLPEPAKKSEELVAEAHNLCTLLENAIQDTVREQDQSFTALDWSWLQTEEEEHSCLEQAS

[2] = biological target: IKKβ 680-756 (Homo sapiens) (UniProt O14920); assay: ITC; conditions: cited from earlier work
[3] = biological target: IKKβ 701-745 (Homo sapiens) (UniProt O14920); assay: SPR; conditions: cited from earlier work
Chain of IKKβ 701-745 (Homo sapiens) (O14920 701-745): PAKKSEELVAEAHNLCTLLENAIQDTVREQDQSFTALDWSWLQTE

cross-linking [4] = biological target: the molecule itself; assay: cross-linking
cross-linking [5] = biological target: the molecule itself; assay: cross-linking; remark: listed apart in the source
[6] = biological target: the molecule itself; assay: fluorescence polarisation

Molecule | stoichiometry N (cross-linking [4]) | other results
NEMO 38-196 (from UniProt Q9Y6K9) |  | Kd [1]: 3.4 nM; Kd [2]: 1000 nM
NEMO 2-200 (from UniProt Q9Y6K9) |  | Kd [3]: 76 nM
B1 | 2 | 
B2 |  | stoichiometry N (cross-linking [5]): 2
B3 | 2 | 
B4 | 2 | 
B5 | 2 | 
B6 | 2 | 
B7 | 2 | Kd [6]: < 5 nM
